In PMC2169338 (The Journal of Cell Biology, 1999):

Experiments:
[1] = target: the molecule itself; test: 35S-sulfate labelling, SDS-PAGE and phosphorimaging of the purified complex
SDS-PAGE = target: the molecule itself; test: SDS-PAGE

B1: Tom40 (natural protein)
chain: not shown
stoichiometry N [1]: ~8 copies of Tom40 in the core complex

B2: Tom70 (receptor, UniProt P23231 1-624, looked up)
chain: MAPTIPPPSVPIPAATPVTVPADSSIWDRVSNWVSEHKAVVYTIAGVSVVITTAGVVYYLRKGSEQKESGPKLSKKERRKRKQAEKGEAEKASTSKTEEAAPTQPKAAAVESADELPEIDEESVVRLSEDERKAYAAKLKELGNKAYGSKDFNKAIDLYSKAIICKPDPVYYSNRAACHNALAQWEQVVADTTAALKLDPHYVKALNRRANAYDQLSRYSDALLDFTASCIIDGFRNEQSAQAVERLLKKFAENKAKEILETKPPKLPSSTFVGNYLQSFRSKPRPEGLEDSVELSEETGLGQLQLGLKHLESKTGTGYEEGSAAFKKALDLGELGPHEALAYNLRGTFHCLMGKHEEALADLSKSIELDPAMTQSYIKRASMNLELGHPDKAEEDFNKAIEQNAEDPDIYYHRAQLHFIKGEFAEAAKDYQKSIDLDSDFIFSHIQLGVTQYKMGSIASSMATFRRCMKNFDQTPDVYNYYGELLLDQNKFQEAIEKFDTAIALEKETKPMCMNVLPLINKALALFQWKQDYAEAEQLCEKALIIDPECDIAVATMAQLLLQQGKVVEALKFFERAAELARTEGELVNALSYAEATRTQIQVQENYPELASKLQGMSGGPGMR
stoichiometry N (SDS-PAGE): 2
